Assay: label from the status in PepcDB records

Sequence	protein production
SEVRWCATSDPEQHKCGNMSEAFREAGIQPSLLCVRGTSADHCVQLIAAQEADAITLDGGAIYEAGKEHGLKPVVGEVYDQEVGTSYYAVAVVRRSSHVTIDTLKGVKSCHTGINRTVGWNVPVGYLVESGRLSVMGCDVLKAVSDYFGGSCVPGAGETSYSESLCRLCRGDSSGEGVCDKSPLERYYDYSGAFRCLAEGAGDVAFVKHSTVLENTDGKTLPSWGQALLSQDFELLCRDGSRADVTEWRQCHLARVPAHAVVVRADTDGGLIFRLLNEGQRLFSHEGSSFQMFSSEAYGQKDLLFKDSTSELVPIATQTYEAWLGHEYLHAMKGLLCDPNRLPPYLRWCVLSTPEIQKCGDMAVAFRRQRLKPEIQCVSAKSPQHCMERIQAEQVDAVTLSGEDIYTAGKKYGLVPAAGEHYAPEDSSNSYYVVAVVRRDSSHAFTLDELRGKRSCHAGFGSPAGWDVPVGALIQRGFIRPKDCDVLTAVSEFFNASCVPVNNPKNYPSSLCALCVGDEQGRNKCVGNSQERYYGYRGAFRCLVENAGDVAFVRHTTVFDNTNGHNSEPWAAELRSEDYELLCPNGARAEVSQFAACNLAQIPPHAVMVRPDTNIFTVYGLLDKAQDLFGDDHNKNGFKMFDSSNYHGQDLLFKDATVRAVPVGEKTTYRGWLGLDYVAALEGMSSQQC	not failed
SGGGGKAWPTHVVCSDSGLEVLYQSCDPLQDFGFSVEKCSKQLKSNINIRFGIILREDIKELFLDLALMSQGSSVLNFSYPICEAALPKFSFCGRRKGEQIYYAGPVNNPEFTIPQGEYQVLLELYTEKRSTVACANATIMCS	failed
SGHFSALPSLPVGSHAKVSSPQPRGPRYAEGTFISDYSIAMDKIHQQDFVNWLLAQKGKKNDWKHNITQREARALELASQANRKEEEAVEPQSSPAKNPSDEDLLRDLLIQELLACLLDQTNLCRLRSR	failed
SGNTTSERVSGERHGAKAARAEGGGHGPGKEHKIMVGSTDDPSVFSLPDSKLPGDKEFVPWQQDLDDSVKPTQQARPTVIRWSEGGKEVFISGSFNNWSTKIPLIKSHNDFVAILDLPEGEHQYKFFVDGQWVHDPSEPVVTSQLGTINNLIHVKKSDFEVFDALKLDSMESSETSCRV	failed
SGRKRLITDSYPVVKRREGPAGHSKGELAPELGEEPQPRDEEEAELELLRQFDLAWQYGPCTGITRLQRWCRAKHMGLEPPPEVWQVLKTHPGDPRFQCSLWHLYPL	failed
SGSEPTKVMVAVNASTIKDYPNPSISCKRAFEWTLEKIVRSNTSDFKILLLHVQVVDEDGFDDVDSIYASPEDFRDMRQSNKAKGLHLLEFFVNKCHEIGVGCEAWIKTGDPKDVICQEVKRVRPDFLVVGSRGLGRFQKVFVGTVSAFCVKHAECPVMTIKRNADETPSDPADD	not failed
SIDLRLQYLATRELRNAIAEQDAKAGSLVIMDVKTGEVLAMVNQPTYNPNNRRSMFPAAMRNRAIIDVFEPGSTVKPISMSAALQSGRWKPTDKVEVYPGSLQIGRYTIKDVSRSEGPILDLTGILINSSNVGMSKIAFDIGGEAIYRVMSQVGLGQYTGLGFPGERVGNLPNHREWRKAETATLSYGYGVSVTALQLVHAYAALANDGKMVPLSIIKVDKTPEAVQAIPKEVAETVQGMLQQVIEAPRGVFRAQVPFYHVAGKSGTARKATVGAKGYTENAYRSLFAGFGPMSDPRYAIVVVIDEPRKGGYFGGLVSAPVFSNVMSGTLRLMNVPPDNLPPPAPAPAVPSQVNAAAAKGGRG	failed
SIKENSYFAGGVKSLGFNQHGQDVSVGVMLPGEYTFGTQAPERMTVVKGALVVKRVGEADWTTYSSGESFDVEGNSSFELQVKDATAYLCEYL	not failed
SILKIEKVLKRMREIKNELLQAQNPSELYLSSKTELQGLIGQLDEVSLEKNPCIREARRRAVIEVQTLITYIDLKE	not failed
SIVIIFNPNSTGDAPELAQQLHGKLKELLTYQPEITLQPTEHAGHAVDLAREAASKGGDVLVVSVSGDGGYNEVVNGVMQADNPRAVAAVLAAGNANDHSRIIGTKPLEEAIAEGRVHNIDLLRIHTG	failed
SKAWLHQYSVVGRKIPTQEEPEPPIYRLKIFAPNVVNAKSRFWYFLRKLKRVKKSSGEILNISEIFEKKSTQVKNYGIWIRYKSRSDTINMYREYRDVTVNGAVEQMYKDMSGRHRARWSSIWVLKAMPVAAKDCRRSKVTQFHDSKIKFALPHMRPRAPLKKYNTPFKAKRPTTIVQ	not failed
SKELKVLVLCAGSGTSAQLANAINEGANLTEVRVIANSGAYGAHYDIMGVYDLIILAPQVRSYYREMKVDAERLGIQIVATRGMEYIHLTKSPSKALQFVLEHYQ	not failed
SKKVIGKKRAHAEDDELDPMDPSSYSDAPRGGWVVGLKGVQPRAADTTASGPLFQQRPYPSPGAVLRRNAEVASSQKKKPNSQFTEITKRGDGSDGLGDAD	failed
SKQKLVLASGSPRRLELLHQIGIEPARLMPMDIDETPVKLEHPRTLCRRLSQQKAEAAQAALKSEQAWKDAYVLGSDTVVAVGRRIVGKAEYTEEASAALHLLSGRSHWVYTGICLVTPDGKIRQKVAETKVRFKRLSTREIDAYIASGQWRGKAGAYGIQGIAGAFVQKLTGSYTNVVGLPLYETMSLLSGEGFEV	failed
SKSNKIFVGGIPHNCGETELREYFKKFGVVTEVVMIYDAEKQRPRGFGFITFEDEQSVDQAVNMHFHDIMGKKVEVKRAEPRDSKS	not failed
SLDVQRVGKAGLHRVDSKKQQTAAGVSFSEVMGKQRDEKAYERLQALMSKIDDQGKLLSETRTIEELRKYKELVKEFVGDAVELGLRLEERRGFNRRGRTKIYKIVKEVDRKLLDLTDAVLAKEKKGLDILNMVGEIKGLLINIYA	not failed
SLENVLASHSKMQGALEKVQIELGRRDSEIAGLKKERDLNQQRVQKLEAEVDQWQARMLVMEDQHNSEIESLQKALGVAREDNRKLAMSLEQALQTNNHLQTKLDHIQEQLESKELERQNLETFKDRMTEESKVEAELHAERIEALRKQFQTERETTKKVAQREVAELKKALDEANFRSVEVSRTNRELRQKLAELEKILESNKEKIKNQKTQIKLHLSAKANNAQNIERMKVVWETSSHFLDTL	not failed
SLERSVNGKIQKADIFSVPVSFNASEVKHVDTPQEALAASLNKFGEVNLEYMENLSEIDIQELLKQLDTRIFYNPMMKNYEIKDRFIAGNVVAKAEWIENYLKDYPDDDASRKSLEALRKAIPEPISFELLDFNLGERWIPMSVYEEFAGYLFETKAHIHYTESIDEFSVNFESTNANITDRYYVKGEKRGYYGNDLLKHALHNTVPDITKTVQDEEGNDIKVRDAEAIQLADAKINEIRSAFTGWLNEQLPEFKQNLADMYNRKFNCYVRPDYDGSLQSFPFLDLKGLGIPNLYDSQ	failed
SLKLAKNVEIEIRTKIHPTESEDKVLKAIRNIFPDAEIEISEEGEVYGRAYSLDRFRELLRKQRILDTARSEILKGRNGKEVTIYLNKQTATVSRINFCDENAVLSPIKVTFRLNNIPFSRFLDYIAPETKDGRPVKEIDKL	not failed
SLKLFLFEFATCGERIEDSTAVEGLAMFKSAFDGFKNYYEITGFVRPEFSCLFTLPVDSMDSMEKYLEKSDAFLIIAPEDDFLLYTLTKKAEKYCENLGSSSRAIAVTSDKWELYKKLRGEVQVPQTSLRPLDCKFIIKPRTACAGEGIGFSDEVPDGHIAQEFIEGINLSVSLAVGEDVKCLSVNEQIINNFRYAGAVVPARISDEVKREVVEEAVRAVECVEGLNGYVGVDIVYSDQPYVIEINARLTTPVVAFSRAYGASVADLLAGGEVKHVRRQMVRKSKSAEKPYVSVGDYTLEIIDLD	not failed
SLNEGQEMEEQFALLLETLKNQQMNEFRELFLALHIYEQGQFYQSLDEKDRQHLYNYLSPKELADMFDVIEEDNENMKDYLAEMRPSYAADMLAEMYTDNAVDLLNMLDKSQKAKYLSLLSSEEAGEIKELLHYEDETAGAIMTTEFVSIVANQTVRSAMYVLKNQADMAETIYYVYVVDQENHLVGVISLRDLIVNDDDTLIADILNERVISVHVGDDQEDVAQTIRDYDFLAVPVTDYDDHLLGIVTVDDIIDVIDDEAASDYSGLAGVDVEEVSENPLKAASK	not failed
SLPHCETLLLEPIEGVLRITLNRPQSRNAMSLAMVGELRAVLAAVRDDRSVRALVLRGADGHFCAGGDIKDMAGARAAGAEAYRTLNRAFGSLLEEAQAAPQLLVALVEGAVLGGGFGLACVSDVAIAAADAQFGLPETSLGILPAQIAPFVVRRIGLTQARRLALTAARFDGREALRLGLVHFCEADADALEQRLEETLEQLRRCAPNANAATKALLLASESGELGALLDDAARQFAEAVGGAEGS	failed
SLRKERARSAEEPWTQNQQKLLELALQQYPRGSSDCWDKIARCVPSKSKEDCIARYKLLV	not failed
SLTSKNQFYKPGMLVPVFSAAGLLKNGRYQFLLQQIETLSLLPTEQYAQLYEALVYRFVEFVQVLPIRLDEPLCSLMNEGLLRGVNSLNHYIQNHPEATPLERYALFSAGLLLEVAHAVVNQKIFITDEEGNFIKQWNPFSGPLIDDVETKHYKIMPLSSYYQRNIPSITPILVRQLLPDEGFLWLTSDMRVFSDWMQALRDDEGEGGGRFEHVLQLFKHKNIDGLFNTLPALPVNLQDSPATAHADAFLNWLKEALATNQIKVNTSDAGVHVIPEGVFLEKTGIFKQYIDLHVNVPVNLFTVYQQFGNLFGLTKLSGIDYRFEQLFSEYPDALKRKSKMGFAGLIGIRRASPTREGVLIADPNLIFTRGEIPSATSYLKLSSAQKSQNIPMT	not failed
SNQDITQPTAIIAVVGVGAEQGIGAAVCRRFAQEKFKVYVAGRTLNKVEKVAAAIHRQGGQAVAYVLDAENEQQLQTLFDHLNDQPEALAAVIHNVGGNIPSIFLQSSLKFFSQMWRSTFLSSVLVAQRSLSIFQKQQQGTLIFTGASASLRGKPFFAAFSMGKSALRSYALNLAELYRSQNIHVAHVMVDGMVDGDRVNKALWGLGRLARLTRGTGGLNIDAIAENYWMLYQQNVDLWT	failed
SNRMTEMHVCLADAIQKDNRPEISNRLFRSNAVEKEILRVQKLLKNAKLAWMFTNCFPNTLDTTVHFRKGSDGKPDTFVYTGDIHAMWLRDSGAQVWPYVQLANSDPELKEMLAGVILRQFKCINIDPYANAFNDGAIPDGHWMSDLTDMKPELHERKWEIDSLCYPLRLAYHYWKTTGDASIFNEEWIQAITNVLKTFKEQQRKDGVGPYKFQRKTERALDTVSNDGLGAPVKPVGLIVSSFRPSDDATTLQFLVPSNFFAVSSLRKAAEILEKVNKKTALSKECKDLAQEVETALKKYAVYNHPKYGKIYAFEVDGFGNHHLMDDANVPSLLAMPYLGDVNVNDPIYQNTRRFVWSEDNPYFFKGKAGEGIGGPHIGYDMVWPMSIMMKAFTSQNDAEIKTCIKMLMDTDAGTGFMHESFHKDNPKKFTRAWFAWQNTLFGELILKLVNEGKVDLLNSIQ	not failed
SPEPYPPLVIETPAMEAAVTALIDRVFGPGRFAKSSERLREGNTLLADCSFVSLRDGAPVGCVRMWPVTIGGEPVAFLGPLAVDPDERSAGLGQALVEAACEAARAAGWRAVLLVGDGPYFGRVGFTNAHTAGVIMPGPVDQRRVLLLPLRDGG	failed
SQPLLDRSIPDFTAFTTVDDWLSAIKMVQYRDSFLTAGFTSLQLVTQMTSEDLLRIGITLAGHQKKILNSIHSMRVQISQSPTAMA	not failed

Reference: a protein production outcome set (Wang et al. 2014)
